Source: PMC5142293, “Characterization of spermidine hydroxycinnamoyl transferases from eggplant (Solanum melongena L.) and its wild relative Solanum richardii Dunal” (Horticulture Research, 2016)
Where a chain is given by its changes, count along the chain named. In names and notes the source's numbering stands.

B1: SmSHT (Solanum virginianum) (protein)
chain: MKVILKNHWVVKPAAPTWTGTVSLSEFDQTFAVTHVPTIYYYKFVQDFITSTDEIIKTLKTSLSEALVHFYPLAGRLRWISGSRLELECDASGVVLTEAETDAKLDDLDSFLLSPNYNSLFPRVDYTIPIDELPLLFVQLTKFQCGGIALSFAISHAVVDGHSALYFFSEWARLSRGEPLMFAPFHDRKVLRAGEPAIACPTFEHLQFNTPPLLIGKSSTENEKKKETKGSMLKLTKLQVEMLREKANQGRNLEDSRERSYTRYEVVTAHIWRCACKARGHKFEQPTNLCICVDIRRRMDPPLPSSYFGNAIVDVIATGASGDIVLSPLECAAKRVREAIKMVTSDYANSTINFLKKEEDLSKYQDIHAFRNKEGPFYGNPNLGVISWISLPVLGLDFGWGKEFHMSPGIHEYDGDCVILPDNEGDGSLTVAIVLQEAHVDAFKKFFYEDIEC
notes: full-length ORF, 453 residues, pET-32a(+) N-terminal His-tag (73 kDa with tag, 51 kDa predicted), E. coli, Ni-NTA purified
B2: SrSHT (Solanum richardii) (protein)
chain: B1 chain with C200S, P286S, R297K, L326S, K402E
notes: full-length ORF, 453 residues, pET-32a(+) N-terminal His-tag (73 kDa with tag, 51 kDa predicted), E. coli, Ni-NTA purified; natural ortholog differing from SmSHT by C200S, P286S, R297K, L326S, K402E

Legend:
Assay in all cases: spectrophotometric acylation assay, microplate (absorbance loss of CoA ester)
Details in all cases: 2.5 mM polyamine acceptor (text b49: spermidine; table title and b21: spermine), pH 9.0, 30 °C, Tris-HCl, 10 mM EDTA
[1] = substrate: CC(C)(COP(=O)(O)OP(=O)(O)OC[C@H]1O[C@@H](n2cnc3c(N)ncnc32)[C@H](O)[C@@H]1OP(=O)(O)O)[C@@H](O)C(=O)NCCC(=O)NCCSC(=O)/C=C/c1ccc(O)c(O)c1; assay type: biochemical, Solanum virginianum
Source text: (§1) spectrophotometric acylation assay, microplate (absorbance loss of CoA ester) on SmSHT

[2] = substrate: CC(C)(COP(=O)(O)OP(=O)(O)OC[C@H]1O[C@@H](n2cnc3c(N)ncnc32)[C@H](O)[C@@H]1OP(=O)(O)O)[C@@H](O)C(=O)NCCC(=O)NCCSC(=O)/C=C/c1ccc(O)cc1; assay type: biochemical, Solanum virginianum
Source text: as §1

[3] = substrate: COc1cc(/C=C/C(=O)SCCNC(=O)CCNC(=O)[C@H](O)C(C)(C)COP(=O)(O)OP(=O)(O)OC[C@H]2O[C@@H](n3cnc4c(N)ncnc43)[C@H](O)[C@@H]2OP(=O)(O)O)ccc1O; assay type: biochemical, Solanum virginianum
Source text: as §1

[4] = substrate: CC(C)(COP(=O)(O)OP(=O)(O)OC[C@H]1O[C@@H](n2cnc3c(N)ncnc32)[C@H](O)[C@@H]1OP(=O)(O)O)[C@@H](O)C(=O)NCCC(=O)NCCSC(=O)/C=C/c1ccc(O)c(O)c1; assay type: biochemical, Solanum richardii
Source text: (§2) spectrophotometric acylation assay, microplate (absorbance loss of CoA ester) on SrSHT

[5] = substrate: CC(C)(COP(=O)(O)OP(=O)(O)OC[C@H]1O[C@@H](n2cnc3c(N)ncnc32)[C@H](O)[C@@H]1OP(=O)(O)O)[C@@H](O)C(=O)NCCC(=O)NCCSC(=O)/C=C/c1ccc(O)cc1; assay type: biochemical, Solanum richardii
Source text: as §2

[6] = substrate: COc1cc(/C=C/C(=O)SCCNC(=O)CCNC(=O)[C@H](O)C(C)(C)COP(=O)(O)OP(=O)(O)OC[C@H]2O[C@@H](n3cnc4c(N)ncnc43)[C@H](O)[C@@H]2OP(=O)(O)O)ccc1O; assay type: biochemical, Solanum richardii
Source text: as §2

Protein	Km [1]	kcat [1]	kcat/Km [1]	Km [2]	kcat [2]	kcat/Km [2]	Km [3]	kcat [3]	kcat/Km [3]	Km [4]	kcat [4]	kcat/Km [4]	Km [5]	kcat [5]	kcat/Km [5]	Km [6]	kcat [6]	kcat/Km [6]
B1	58.3 ± 1.7 µM	7.36 ± 0.185 s⁻¹	127000 ± 3330 M⁻¹ s⁻¹	29.6 ± 5.8 µM	3.02 ± 0.122 s⁻¹	102000 ± 3330 M⁻¹ s⁻¹	27.3 ± 5.6 µM	3.87 ± 0.205 s⁻¹	142000 ± 8330 M⁻¹ s⁻¹	–	–	–	–	–	–	–	–	–
B2	–	–	–	–	–	–	–	–	–	67.1 ± 7.6 µM	10.1 ± 0.483 s⁻¹	150000 ± 6670 M⁻¹ s⁻¹	38.4 ± 3.3 µM	4.33 ± 0.243 s⁻¹	113000 ± 6670 M⁻¹ s⁻¹	51.3 ± 10.6 µM	6.88 ± 1 s⁻¹	133000 ± 20000 M⁻¹ s⁻¹
